Biological target: HybD endoprotease fused with peptide T18 of adenylate cyclase (pT18-hybD) (Escherichia coli) (UniProt P37182)
Test: two-hybrid; bacterial two-hybrid (adenylate cyclase fragments T25 and T18) in E. coli BTH101; T25 at the N-terminus of the large subunit variants, T18 fused with HybD; anaerobic growth in TGYEP medium pH 6.5 at 30°C for 16 h; β-galactosidase activity according to Miller

Sequence of UniProt P37182 (P37182 whole entry, the tested form may be a part): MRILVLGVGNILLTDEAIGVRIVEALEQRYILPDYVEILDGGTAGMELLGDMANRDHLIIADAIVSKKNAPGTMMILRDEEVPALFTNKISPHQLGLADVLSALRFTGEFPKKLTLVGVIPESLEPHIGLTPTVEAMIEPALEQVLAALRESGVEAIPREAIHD

“pro-HybC^§ fused to peptide T25 of adenylate cyclase (pT25-hybC^§) (from UniProt P0ACE0 2-552)” showed a β-galactosidase activity of 820 units.
